Experimental data as given in patent US20020015981A1 (Amgen, published 2002).

Target: T1, human α2-polyHis-tag (human, UniProt Q96T91 24-129)
T1 construct: also called human α2 polypeptide; alpha-2; not shown: polyHis tag
T1 sequence (looked up): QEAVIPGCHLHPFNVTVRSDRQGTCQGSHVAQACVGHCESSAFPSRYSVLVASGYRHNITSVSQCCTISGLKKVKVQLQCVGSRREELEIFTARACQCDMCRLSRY
Experiment: heterodimerization assay: co-transfection, immunoprecipitation, Western blot
Description: A human α2-polyHis-tag mammalian expression vector and a human β10-FLAG-tag mammalian expression vector were co-transfected into 293 cells and serum free conditioned media was harvested after 72 hours. Immunoprecipitation was done using anti-FLAG M2-Agarose affinity beads (Cat# A1205, Sigma, St. Louis, Mo.). A Western blot of this immunoprecipitate was probed with affinity purified anti-α2 rabbit polyclonal antibodies (example 4) that had been conjugated to Horse Radish Peroxidase (Linx HRP Rapid Protein Conjugation Kit, cat# K8050-01, Invitrogen Corp., Carlsbad, Calif.). A strong α2-polyHis-tag band was observed using the ECL Western Blot detection kit (cat#RPN 2106, Amersham Pharmacia Biotech, Piscataway, N.J.). […] No α2-polyHis-tag band was observed if either of these 2 components was left out of the experiment or if plain agarose beads (i.e. without anti-FLAG antibodies) were used for the immunoprecipitation step.

B1: human β10-FLAG-tag (ligand)
chain: ASSGNLRTFVGCAVREFTFLAKKPGCRGLRITTDACWGRCETWEKPILEPPYIEAHHRVCTYNETKQVTVKLPNCAPGVDPFYTYPVAIRCDCGACSTATTECETI
notes: Secreted from transfected 293 cells; the cleavage site is predicted, not determined; also called human β10 polypeptide; beta-10; not shown: FLAG tag
B1: binds.
